Biological target: the molecule itself
Test: SEC; gel filtration, Superdex 200 10/300, room temperature, 20 mM Tris pH 8.0, 150 mM NaCl, 5 mM β-mercaptoethanol; BL21-expressed and TP1000-expressed proteins

B1: Escherichia coli YiiM (natural protein)
chain: MRYPVDVYTGKIQAYPEGKPSAIAKIQVDGELMLTELGLEGDEQAEKKVHGGPDRALCHYPREHYLYWAREFPEQAELFVAPAFGENLSTDGLTESNVYMGDIFRWGEALIQVSQPRSPCYKLNYHFDISDIAQLMQNTGKVGWLYSVIAPGKVSADAPLELVSRVSDVTVQEAAAIAWHMPFDDDQYHRLLSAAGLSKSWTRTMQKRRLSGKIEDFSRRLWGK
notes: YiiM, a MOSC family protein of Escherichia coli; gene amplified by PCR from E. coli genomic DNA; calculated molecular weight 25.9 kDa; The BL21- and the TP1000-expressed protein are written as one molecule (both behaved alike); the crystal was grown from the TP1000-expressed protein; also called ecYiiM; ecYiiM^Pi (phosphate complex in the crystal); source: E. coli BL21 (DE3) (pET49b) and E. coli …
  stoichiometry N: 2

Source: PMC5818509, “Crystal structure of the hydroxylaminopurine resistance protein, YiiM, and its putative molybdenum cofactor-binding catalytic site” (Scientific Reports, 2018)
